The record followed here is article PMC2939310 (Biochemistry, 2010).

This data set deals with the molecule itself. Nature of the data set: SEC.

B1: DesVII-C-His6/DesVIII-N-Stag heterodimer (complex, Streptomyces venezuelae)
chain 1: MRVLLTSFAHHTHYYGLVPLAWALLAAGHEVRVASQPALTDTITGSGLAAVPVGTDHLIHEYRVRMAGEPRPNHPAIAFDEARPEPLDWDHALGIEAILAPYFYLLANNDSMVDDLVDFARSWQPDLVLWEPTTYAGAVAAQVTGAAHARVLWGPDVMGSARRKFVALRDRQPPEHREDPTAEWLTWTLDRYGASFEEELLTGQFTIDPTPPSLRLDTGLPTVGMRYVPYNGTSVVPDWLSEPPARPRVCLTLGVSAREVLGGDGVSQGDILEALADLDIELVATLDASQRAEIRNYPKHTRFTDFVPMHALLPSCSAIIHHGGAGTYATAVINAVPQVMLAELWDAPVKARAVAEQGAGFFLPPAELTPQAVRDAVVRILDDPSVATAAHRLREETFGDPTPAGIVPELERLAAQHRRPPADARH
chain 2: MTDDLTGALTQPPLGRTVRAVADRELGTHLLETRGIHWIHAANGDPYATVLRGQADDPYPAYERVRARGALSFSPTGSWVTADHALAASILCSTDFGVSGADGVPVPQQVLSYGEGCPLEREQVLPAAGDVPEGGQRAVVEGIHRETLEGLAPDPSASYAFELLGGFVRPAVTAAAAAVLGVPADRRADFADLLERLRPLSDSLLAPQSLRTVRAADGALAELTALLADSDDSPGALLSALGVTAAVQLTGNAVLALLAHPEQWRELCDRPGLAAAAVEETLRYDPPVQLDARVVRGETELAGRRLPAGAHVVVLTAATGRDPEVFTDPERFDLARPDAAAHLALHPAGPYGPVASLVRLQAEVALRTLAGRFPGLRQAGDVLRPRRAPVGRGPLSVPVSSS
Turning to B1, the “stoichiometry N” value was 3 heterodimers in the complex.
